Publication PMC9105384, “Ethyl Gallate Dual-Targeting PTPN6 and PPARγ Shows Anti-Diabetic and Anti-Obese Effects” (International Journal of Molecular Sciences, 2022)

B1: PTPN12 (Homo sapiens) (protein)
chain: MEQVEILRKFIQRVQAMKSPDHNGEDNFARDFMRLRRLSTKYRTEKIYPTATGEKEENVKKNRYKDILPFDHSRVKLTLKTPSQDSDYINANFIKGVYGPKAYVATQGPLANTVIDFWRMIWEYNVVIIVMACREFEMGRKKCERYWPLYGEDPITFAPFKISCEDEQARTDYFIRTLLLEFQNESRRLYQFHYVNWPDHDVPSSFDSILDMISLMRKYQEHEDVPICIHCSAGCGRTGAICAIDYTWNLLKAGKIPEEFNVFNLIQEMRTQRHSAVQTKEQYELVHRAIAQLFEKQLQLYEIHGAQKIADGVNEINTENMVSSIEPEKQDSPPPKPPRTRSCLVEGDAKEEILQPPEPHPVPPILTPSPPSAFPTVTTVWQDNDRYHPKPVLHMVSSEQHSADLNRNYSKSTELPGKNESTIEQIDKKLERNLSFEIKKVPLQEGPKSFDGNTLLNRGHAIKIKSASPCIADKISKPQELSSDLNVGDTSQNSCVDCSVTQSNKVSVTPPEESQNSDTPPRPDRLPLDEKGHVTWSFHGPENAIPIPDLSEGNSSDINYQTRKTVSLTPSPTTQVETPDLVDHDNTSPLFRTPLSFTNPLHSDDSDSDERNSDGAVTQNKTNISTASATVSAATSTESISTRKVLPMSIARHNIAGTTHSGAEKDVDVSEDSPPPLPERTPESFVLASEHNTPVRSEWSELQSQERSEQKKSEGLITSENEKCDHPAGGIHYEMCIECPPTFSDKREQISENPTEATDIGFGNRCGKPKGPRDPPSEWT
B2: PTPN14 (Homo sapiens) (protein)
chain: MPFGLKLRRTRRYNVLSKNCFVTRIRLLDSNVIECTLSVESTGQECLEAVAQRLELRETHYFGLWFLSKSQQARWVELEKPLKKHLDKFANEPLLFFGVMFYVPNVSWLQQEATRYQYYLQVKKDVLEGRLRCTLDQVIRLAGLAVQADFGDYNQFDSQDFLREYVLFPMDLALEEAVLEELTQKVAQEHKAHSGILPAEAELMYINEVERLDGFGQEIFPVKDNHGNCVHLGIFFMGIFVRNRIGRQAVIYRWNDMGNITHNKSTILVELINKEETALFHTDDIENAKYISRLFATRHKFYKQNKICTEQSNSPPPIRRQPTWSRSSLPRQQPYILPPVHVQCGEHYSETHTSQDSIFHGNEEALYCNSHNSLDLNYLNGTVTNGSVCSVHSVNSLNCSQSFIQASPVSSNLSIPGSDIMRADYIPSHRHSAIIVPSYRPTPDYETVMRQMKRGILHTDSQSQSLRNLNIINTHAYNQPEDLVYSQPEMRERHPYTVPYGPQGVYSNKLVSPSDQRNPKNNVVPSKPGASAISHTVSTPELANMQLQGSHNYSTAHMLKNYLFRPPPPYPRPRPATSTPDLASHRHKYVSGSSPDLVTRKVQLSVKTFQEDSSPVVHQSLQEVSEPLTATKHHGTVNKRHSLEVMNSMVRGMEAMTLKSLHLPMARRNTLREQGPPEEGSGSHEVPQLPQYHHKKTFSDATMLIHSSESEEEEEEAPESVPQIPMLREKMEYSAQLQAALARIPNKPPPEYPGPRKSVSNGALRQDQASLPPAMARARVLRHGPAKAISMSRTDPPAVNGASLGPSISEPDLTSVKERVKKEPVKERPVSEMFSLEDSIIEREMMIRNLEKQKMAGLEAQKRPLMLAALNGLSVARVSGREENRVDATRVPMDERFRTLKKKLEEGMVFTEYEQIPKKKANGIFSTAALPENAERSRIREVVPYEENRVELIPTKENNTGYINASHIKVVVGGAEWHYIATQGPLPHTCHDFWQMVWEQGVNVIAMVTAEEEGGRTKSHRYWPKLGSKHSSATYGKFKVTTKFRTDSVCYATTGLKVKHLLSGQERTVWHLQYTDWPDHGCPEDVQGFLSYLEEIQSVRRHTNSMLEGTKNRHPPIVVHCSAGVGRTGVLILSELMIYCLEHNEKVEVPMMLRLLREQRMFMIQTIAQYKFVYQVLIQFLQNSRLI
B3: PTPN18 (Homo sapiens) (protein)
chain: MSRSLDSARSFLERLEARGGREGAVLAGEFSDIQACSAAWKADGVCSTVAGSRPENVRKNRYKDVLPYDQTRVILSLLQEEGHSDYINGNFIRGVDGSLAYIATQGPLPHTLLDFWRLVWEFGVKVILMACREIENGRKRCERYWAQEQEPLQTGLFCITLIKEKWLNEDIMLRTLKVTFQKESRSVYQLQYMSWPDRGVPSSPDHMLAMVEEARRLQGSGPEPLCVHCSAGCGRTGVLCTVDYVRQLLLTQMIPPDFSLFDVVLKMRKQRPAAVQTEEQYRFLYHTVAQMFCSTLQNASPHYQNIKENCAPLYDDALFLRTPQALLAIPRPPGGVLRSISVPGSPGHAMADTYAVVQKRGAPAGAGSGTQTGTGTGTGARSAEEAPLYSKVTPRAQRPGAHAEDARGTLPGRVPADQSPAGSGAYEDVAGGAQTGGLGFNLRIGRPKGPRDPPAEWTRV
B4: PTPN21 (Homo sapiens) (protein)
chain: MPLPFGLKLKRTRRYTVSSKSCLVARIQLLNNEFVEFTLSVESTGQESLEAVAQRLELREVTYFSLWYYNKQNQRRWVDLEKPLKKQLDKYALEPTVYFGVVFYVPSVSQLQQEITRYQYYLQLKKDILEGSIPCTLEQAIQLAGLAVQADFGDFDQYESQDFLQKFALFPVGWLQDEKVLEEATQKVALLHQKYRGLTAPDAEMLYMQEVERMDGYGEESYPAKDSQGSDISIGACLEGIFVKHKNGRHPVVFRWHDIANMSHNKSFFALELANKEETIQFQTEDMETAKYIWRLCVARHKFYRLNQCNLQTQTVTVNPIRRRSSSRMSLPKPQPYVMPPPPQLHYNGHYTEPYASSQDNLFVPNQNGYYCHSQTSLDRAQIDLNGRIRNGSVYSAHSTNSLNNPQPYLQPSPMSSNPSITGSDVMRPDYLPSHRHSAVIPPSYRPTPDYETVMKQLNRGLVHAERQSHSLRNLNIGSSYAYSRPAALVYSQPEIREHAQLPSPAAAHCPFSLSYSFHSPSPYPYPAERRPVVGAVSVPELTNAQLQAQDYPSPNIMRTQVYRPPPPYPPPRPANSTPDLSRHLYISSSNPDLITRRVHHSVQTFQEDSLPVAHSLQEVSEPLTAARHAQLHKRNSIEVAGLSHGLEGLRLKERTLSASAAEVAPRAVSVGSQPSVFTERTQREGPEEAEGLRYGHKKSLSDATMLIHSSEEEEDEDFEEESGARAPPARAREPRPGLAQDPPGCPRVLLAGPLHILEPKAHVPDAEKRMMDSSPVRTTAEAQRPWRDGLLMPSMSESDLTTSGRYRARRDSLKKRPVSDLLSGKKNIVEGLPPLGGMKKTRVDAKKIGPLKLAALNGLSLSRVPLPDEGKEVATRATNDERCKILEQRLEQGMVFTEYERILKKRLVDGECSTARLPENAERNRFQDVLPYDDVRVELVPTKENNTGYINASHIKVSVSGIEWDYIATQGPLQNTCQDFWQMVWEQGIAIIAMVTAEEEGGREKSFRYWPRLGSRHNTVTYGRFKITTRFRTDSGCYATTGLKMKHLLTGQERTVWHLQYTDWPEHGCPEDLKGFLSYLEEIQSVRRHTNSTSDPQSPNPPLLVHCSAGVGRTGVVILSEIMIACLEHNEVLDIPRVLDMLRQQRMMLVQTLCQYTFVYRVLIQFLKSSRLI
B5: DUSP9 (Homo sapiens) (protein)
chain: MEGLGRSCLWLRRELSPPRPRLLLLDCRSRELYESARIGGALSVALPALLLRRLRRGSLSVRALLPGPPLQPPPPAPVLLYDQGGGRRRRGEAEAEAEEWEAESVLGTLLQKLREEGYLAYYLQGGFSRFQAECPHLCETSLAGRAGSSMAPVPGPVPVVGLGSLCLGSDCSDAESEADRDSMSCGLDSEGATPPPVGLRASFPVQILPNLYLGSARDSANLESLAKLGIRYILNVTPNLPNFFEKNGDFHYKQIPISDHWSQNLSRFFPEAIEFIDEALSQNCGVLVHCLAGVSRSVTVTVAYLMQKLHLSLNDAYDLVKRKKSNISPNFNFMGQLLDFERSLRLEERHSQEQGSGGQASAASNPPSFFTTPTSDGAFELAPT
B6: DUSP3 (Homo sapiens) (protein)
chain: MSGSFELSVQDLNDLLSDGSGCYSLPSQPCNEVTPRIYVGNASVAQDIPKLQKLGITHVLNAAEGRSFMHVNTNANFYKDSGITYLGIKANDTQEFNLSAYFERAADFIDQALAQKNGRVLVHCREGYSRSPTLVIAYLMMRQKMDVKSALSIVRQNREIGPNDGFLAQLCQLNDRLAKEGKLKP
B7: DUSP14 (Homo sapiens) (protein)
chain: MSSRGHSTLPRTLMAPRMISEGDIGGIAQITSSLFLGRGSVASNRHLLQARGITCIVNATIEIPNFNWPQFEYVKVPLADMPHAPIGLYFDTVADKIHSVSRKHGATLVHCAAGVSRSATLCIAYLMKFHNVCLLEAYNWVKARRPVIRPNVGFWRQLIDYERQLFGKSTVKMVQTPYGIVPDVYEKESRHLMPYWGI
B8: DUSP15 (Homo sapiens) (protein)
chain: MTEGVLPGLYLGNFIDAKDLDQLGRNKITHIISIHESPQPLLQDITYLRIPVADTPEVPIKKHFKECINFIHCCRLNGGNCLVHCFAGISRSTTIVTAYVMTVTGLGWRDVLEAIKATRPIANPNPGFRQQLEEFGWASSQKGARHRTSKTSGAQCPPMTSATCLLAARVALLSAALVREATGRTAQRCRLSPRAAAERLLGPPPHVAAGWSPDPKYQICLCFGEEDPGPTQHPKEQLIMADVQVQLRPGSSSCTLSASTERPDGSSTPGNPDGITHLQCSCLHPKRAASSSCTR
B9: DUSP18 (Homo sapiens) (protein)
chain: MTAPSCAFPVQFRQPSVSGLSQITKSLYISNGVAANNKLMLSSNQITMVINVSVEVVNTLYEDIQYMQVPVADSPNSRLCDFFDPIADHIHSVEMKQGRTLLHCAAGVSRSAALCLAYLMKYHAMSLLDAHTWTKSCRPIIRPNSGFWEQLIHYEFQLFGKNTVHMVSSPVGMIPDIYEKEVRLMIPL
B10: DUSP22 (Homo sapiens) (protein)
chain: MGNGMNKILPGLYIGNFKDARDAEQLSKNKVTHILSVHDSARPMLEGVKYLCIPAADSPSQNLTRHFKESIKFIHECRLRGESCLVHCLAGVSRSVTLVIAYIMTVTDFGWEDALHTVRAGRSCANPNVGFQRQLQEFEKHEVHQYRQWLKEEYGESPLQDAEEAKNILAAPGILKFWAFLRRL

Substrate: Cc1cc(=O)oc2c(F)c(OP(=O)(O)O)c(F)cc12
Assay: purified protein, by the assay type
Parameters: DiFMUP hydrolysis by purified PTPs, fluorescence Ex355/Em460, initial rates over 10 min; Michaelis-Menten and Lineweaver-Burk Km
Method: The enzymatic activity of each PTP was evaluated using 6,8-difluoro-4-methylumbelliferyl phosphate (DiFMUP) as the surrogate substrate. To reach within the range of the initial rate (v0) during the measurement for 10 min, the pH and concentration of each PTP were optimized and are listed in Table S3. To determine the Km values, each PTP with optimized concentration was added to the reaction buffer (20 mM Bis-Tris at pH 6.0 or Tris at pH 7.0 and 8.0, 150 mM NaCl, 2.5 mM dithiothreitol (DTT), 0.01% Triton X-100) containing various concentrations of DiFMUP to obtain a final volume of 100 μL in a 96-well plate. Fluorescence intensities were measured once every minute for a complete 10 min duration using a Victor™ X4 Multilabel Plate Reader (Perkin Elmer, Waltham, MA, USA) at excitation/emission = 355 nm/460 nm. The initial rates of the reaction were determined using a previously described procedure for calculating the amount of product formation. To screen a library of 1033 natural products (Chengdu Biopurify Phytochemicals Ltd., Chengdu, China) against 20 PTPs, each PTP with an optimized concentration was added to the reaction buffer with an optimized pH containing DiFMUP (2 × Km for each PTP) after adding each compound (20 μM). […] The IC50 values were estimated using a sigmoid plot in GraphPad Prism 5 software (GraphPad Software Inc., San Diego, CA, USA). The Hill coefficient (nH), the degree of cooperativity, was calculated according to a previously published method. To determine the inhibition constant (Ki) and identify the inhibition mode of EG, various concentrations of EG (2.5, 5, 10, and 20 μM) were assayed with various concentrations of DiFMUP (260, 130, 65, and 32.5 μM). Kinetic parameters were obtained using Dixon plots for Ki and Lineweaver-Burk plots for the inhibition mode.

| Protein | Km [µM] |
| --- | --- |
| B1 | 75.8 |
| B2 | 423.7 |
| B3 | 5.5 |
| B4 | 46.7 |
| B5 | 35.0 |
| B6 | 100.0 |
| B7 | 55.0 |
| B8 | 9.1 |
| B9 | 29.0 |
| B10 | 13.0 |
